Results on nine molecules are retold here after patent US20250051433A1 (INMAGENE PTE, published 2025).

Read-outs that look alike come from different tables or passages of the source.

Assay [1] has as its target T1, human long form TSLP expressed on cell membrane.
T1 construct: also called membrane long-form huTSLP fusion protein; membrane long-form TSLP fusion protein
The assay can be described thus: FACS on cells expressing the membrane human long-form TSLP fusion protein, MFI; unit taken from the concentration axis.

The target of assay [2] is T2, mouse long-form TSLP protein (ACRO, tsp-m52h8) (mouse, UniProt Q9JIE6 20-140).
T2 construct: Bought; also called mouse TSLP
T2 sequence (looked up): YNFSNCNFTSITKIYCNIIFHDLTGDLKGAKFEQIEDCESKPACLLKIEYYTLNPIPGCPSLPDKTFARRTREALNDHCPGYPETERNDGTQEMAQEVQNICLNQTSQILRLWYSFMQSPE
The experiment in a line: ELISA on coated mouse long-form TSLP.

The target in assay [3] is T3, human long-form TSLP protein (Acro, tsp-h5255 or tsp-h52ha) (human, UniProt Q969D9 29-159).
T3 construct: If it was tsp-h52ha, this is the same molecule as m12 (His-tagged); also called human TSLP protein
The experiment in a line: BLI (Gator, HFC probe), antibody loaded at 10 ug/ml, TSLP at 50 to 1.56 nM.

The target of assay [4] is T3, human long-form TSLP protein (Acro, …). The experiment in a line: ELISA on coated human long-form TSLP, OD450; unit taken from the concentration axis.
Assay [5] has the same target. Described as above. The source holds these as a separate data set.
The target in assay [6] is T4, cynomolgus long-form TSLP protein (ACRO, tsp-c52h8) (cynomolgus monkey, UniProt A0A7N9CAT7 29-159).
T4 construct: also called monkey long-form TSLP; Cyno TSLP
T4 sequence: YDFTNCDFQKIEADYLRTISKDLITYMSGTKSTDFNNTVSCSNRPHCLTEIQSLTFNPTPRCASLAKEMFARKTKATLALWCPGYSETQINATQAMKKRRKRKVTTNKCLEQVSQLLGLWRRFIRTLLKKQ
The assay can be described thus: ELISA on coated cynomolgus long-form TSLP, OD450; ambiguous fit of a flat curve (Bottom 0.06295, Top ~ 145.1), see non_binding; unit taken from the concentration axis. On the technique in general: ELISA stands for enzyme-linked immunosorbent assay.

Assay [7] concerns the target T5, membrane short-form huTSLP fusion protein (human).
T5 construct: also called human short form TSLP expressed on cell membrane
The experiment in a line: FACS on cells expressing membrane short-form huTSLP, MFI; ambiguous fit of a flat curve (Bottom 895.5, Top 876.2), see non_binding; unit taken from the concentration axis.

Assay [8] concerns the target T4, cynomolgus long-form TSLP protein …. The experiment in a line: ELISA on coated cynomolgus long-form TSLP, OD450; ambiguous fit of a flat curve (Bottom 0.06800, Top ~ 0.8608), see non_binding; unit taken from the concentration axis.
Assay [9] deals with T5, membrane short-form huTSLP fusion …. The experiment in a line: FACS on cells expressing membrane short-form huTSLP, MFI; ambiguous fit of a flat curve (Bottom 712.4, Top 749.3), see non_binding; unit taken from the concentration axis.
Assay [10] deals with T1, human long form TSLP expressed on cell …. The experiment in a line: FACS on cells expressing the membrane human long-form TSLP fusion protein, MFI; unit taken from the concentration axis. This is another data set of the same source.
Assay [11] shares this target. The assay is described as above. This is another data set of the same source.
Assay [12] addresses T3, human long-form TSLP protein (Acro, …). The experiment in a line: ELISA on coated human long-form TSLP, OD450; unit taken from the concentration axis. This is another data set of the same source.
Assay [13] addresses T1, human long form TSLP expressed on cell …. The assay can be described thus: FACS on cells expressing the membrane human long-form TSLP fusion protein, MFI; unit taken from the concentration axis. This is another data set of the same source.
The target is the same in assay [14]. The experiment in a line: FACS on cells expressing the membrane human long-form TSLP fusion protein, MFI; rising binding curve, but the table column is headed IC50; unit taken from the concentration axis.

T3 sequence (Q969D9 29-159 R127A/R130A limits assumed): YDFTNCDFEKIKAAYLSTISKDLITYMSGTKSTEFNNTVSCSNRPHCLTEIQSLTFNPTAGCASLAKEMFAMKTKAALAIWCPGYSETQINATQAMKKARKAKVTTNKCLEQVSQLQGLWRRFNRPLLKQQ
T1 sequence (chain, as listed by the source): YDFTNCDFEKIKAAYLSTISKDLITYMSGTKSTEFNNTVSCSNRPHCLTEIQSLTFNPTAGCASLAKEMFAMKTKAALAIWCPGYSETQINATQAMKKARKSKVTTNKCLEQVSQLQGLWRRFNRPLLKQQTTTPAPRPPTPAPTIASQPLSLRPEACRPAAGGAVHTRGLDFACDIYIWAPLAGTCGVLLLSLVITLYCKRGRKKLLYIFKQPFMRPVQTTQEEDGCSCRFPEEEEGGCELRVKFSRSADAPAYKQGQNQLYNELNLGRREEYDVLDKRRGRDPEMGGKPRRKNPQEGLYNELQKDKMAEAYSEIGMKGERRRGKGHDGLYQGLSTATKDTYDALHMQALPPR
T5 sequence (chain, as listed by the source limits assumed): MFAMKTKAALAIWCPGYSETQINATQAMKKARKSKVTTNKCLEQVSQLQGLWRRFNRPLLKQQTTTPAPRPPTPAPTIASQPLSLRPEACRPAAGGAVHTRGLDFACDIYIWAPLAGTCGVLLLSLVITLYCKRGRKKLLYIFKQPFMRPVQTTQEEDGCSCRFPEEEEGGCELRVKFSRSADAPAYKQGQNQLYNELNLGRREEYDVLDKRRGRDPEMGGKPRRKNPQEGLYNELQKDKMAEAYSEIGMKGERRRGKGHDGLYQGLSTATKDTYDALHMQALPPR

B1: 39H11Z11 (antibody, human IgG2, V domains shown)
VH: QVQLVQSGAEVKKPGASVKVSCKASGYAFSSYWMNWVRQAPGQGLEWMGQIFPGDGETNYNGKFKGRVTMTRDTSTSTVYMELSSLRSEDTAVYYCARGGYVNFLYAMDYWGQGTTVTVSS
VL: EIVMTQSPATLSVSPGERATLSCSVSSSISSSNLHWYQQKPGQSPRPWIYGTSTLASGIPARFSGSGSGTEFTLTISSLQSEDFAVYYCQQWSSYPLTFGGGTKVEIK
Regarding B1, the EC50 (in general, the midpoint of the concentration-response curve) in [1] came to 0.129 µg/mL.

B2: mAb35G12 (antibody)
heavy: QVQLVQSGAEVKKPGSSVKVSCKSSGYAFSSYWINWVRQAPGQGLEWMGQIFPGDGDTTYNGNFKGRVTITADKSTSTAYMELSSLRSEDTAVYYCARSGFDYGYFYAMDYWGQGTTVTVSSASTKGPSVFPLAPCSRSTSESTAALGCLVKDYFPEPVTVSWNSGALTSGVHTFPAVLQSSGLYSLSSVVTVPSSSLGTKTYTCNVDHKPSNTKVDKRVESKYGPPCPPCPAPEAAGGPSVFLFPPKPKDTLYITREPEVTCVVVDVSQEDPEVQFNWYVDGVEVHNAKTKPREEQFNSTYRVVSVLTVLHQDWLNGKEYKCKVSNKGLPSSIEKTISKAKGQPREPQVYTLPPSQEEMTKNQVSLTCLVKGFYPSDIAVEWESNGQPENNYKTTPPVLDSDGSFFLYSRLTVDKSRWQEGNVFSCSVMHEALHNHYTQKSLSLSLG
light: EIVMTQSPATLSVSPGERATLSCSVSSSISSSNLHWYQQKPGQSPRPWIFGTSNLASGIPARFSGSGSGTEFTLTISSLQSEDFAVYYCQQWSSYPLTFGGGTKVEIK
notes: not shown: human kappa light chain constant region ('its corresponding light chain vector')
For the molecule B2, the binding result in assay [2] is recorded as “no binding (tested: about 20 µg/mL)”. Besides, the Kd (as a rule, the constant that tells how readily two partners part at equilibrium) in [3] is 1.98 nM. For the same molecule, the concentration for a half-maximal effect (EC50) in assay [4] was 0.122 µg/mL; in assay [5] it was 0.206 µg/mL; in [6], about 51.9 µg/mL; in assay [7], about 0.384 µg/mL.

B3: mAb39H11 (antibody, IgG4)
heavy: QVQLVQSGAEVKKPGSSVKVSCKASGYAFSSYWMNWVRQAPGQGLEWMGQIFPGDGETNYNGKFKGRVTITADKSTSTAYMELSSLRSEDTAVYYCARGGYVNFLYAMDYWGQGTTVTVSSASTKGPSVFPLAPCSRSTSESTAALGCLVKDYFPEPVTVSWNSGALTSGVHTFPAVLQSSGLYSLSSVVTVPSSSLGTKTYTCNVDHKPSNTKVDKRVESKYGPPCPPCPAPEAAGGPSVFLFPPKPKDTLYITREPEVTCVVVDVSQEDPEVQFNWYVDGVEVHNAKTKPREEQFNSTYRVVSVLTVLHQDWLNGKEYKCKVSNKGLPSSIEKTISKAKGQPREPQVYTLPPSQEEMTKNQVSLTCLVKGFYPSDIAVEWESNGQPENNYKTTPPVLDSDGSFFLYSRLTVDKSRWQEGNVFSCSVMHEALHNHYTQKSLSLSLG
light: EIVMTQSPATLSVSPGERATLSCSVSSSISSSNLHWYQQKPGQSPRPWIYGTSTLASGIPARFSGSGSGTEFTLTISSLQSEDFAVYYCQQWSSYPLTFGGGTKVEIK
notes: as for B2
As for B3, the binding result in [2] was “no binding (tested: about 20 µg/mL)”. This molecule came in with a Kd in assay [3] of 2.1 nM. Also, the EC50 in assay [4] is 0.149 µg/mL; in assay [5] it was 0.153 µg/mL; in assay [8] it was about 23.8 µg/mL; in assay [9], about 0.134 µg/mL.

B4: 35G12Z01 (antibody, human IgG2, V domains shown)
VH: QVQLVQSGAEVKKPGASVKVSCKSSGYAFSSYWMNWVRQAPGQGLEWMGQIFPGDGDTTYNGNFKGRVTMTRDTSTSTVYMELSSLRSEDTAVYYCARSGFDYGYFYAMDYWGQGTTVTVSS
VL: EIVMTQSPATLSVSPGERATLSCSVSSSISSSNLHWYQQKPGQSPRPWIFGTSNLASGIPARFSGSGSGTEFTLTISSLQSEDFAVYYCQQWSSYPLTFGGGTKVEIK
For the molecule B4, the half-maximal effective concentration (EC50) in assay [10] stood at 0.158 µg/mL.

B5: 35G12Z02 (antibody, human IgG2, V domains shown)
VH: EVQLVQSGAEVKKPGESLKISCKSSGYAFSSYWINWVRQMPGKGLEWMGQIFPGDGDTTYNGNFKGQVTISADKSISTAYLQWSSLKASDTAMYYCARSGFDYGYFYAMDYWGQGTTVTVSS
VL: EIVMTQSPATLSVSPGERATLSCSVSSSISSSNLHWYQQKPGQSPRPWIFGTSNLASGIPARFSGSGSGTEFTLTISSLQSEDFAVYYCQQWSSYPLTFGGGTKVEIK
Take B5: a half-maximal effect in assay [10] (EC50) was put at 0.174 µg/mL.

B6: 39H11Z07 (antibody, human IgG2, kappa)
heavy: QVQLVQSGAEVKKPGSSVKVSCKASGYAFSSYWMNWVRQAPGQGLEWMGQIFPGDGETNYNGKFKGRVTITADKSTSTAYMELSSLRSEDTAVYYCARGGYVNFLYAMDYWGQGTTVTVSSASTKGPSVFPLAPCSRSTSESTAALGCLVKDYFPEPVTVSWNSGALTSGVHTFPAVLQSSGLYSLSSVVTVPSSNFGTQTYTCNVDHKPSNTKVDKTVERKCCVECPPCPAPPVAGPSVFLFPPKPKDTLMISRTPEVTCVVVDVSHEDPEVQFNWYVDGVEVHNAKTKPREEQFNSTFRVVSVLTVVHQDWLNGKEYKCKVSNKGLPAPIEKTISKTKGQPREPQVYTLPPSREEMTKNQVSLTCLVKGFYPSDISVEWESNGQPENNYKTTPPMLDSDGSFFLYSKLTVDKSRWQQGNVFSCSVMHEALHNHYTQKSLSLSPGK
light: EIVMTQSPATLSVSPGERATLSCSVSSSISSSNLHWYQQKPGQSPRPWIYGTSTLASGIPARFSGSGSGTEFTLTISSLQSEDFAVYYCQQWSSYPLTFGGGTKVEIKRTVAAPSVFIFPPSDEQLKSGTASVVCLLNNFYPREAKVQWKVDNALQSGNSQESVTEQDSKDSTYSLSSTLTLSKADYEKHKVYACEVTHQGLSSPVTKSFNRGEC
notes: also called 39H11Z07-IgG2
Regarding B6, the half-maximal effective concentration (EC50) in [11] is 0.079 µg/mL.

B7: 35G12Z03 (antibody, human IgG2, kappa)
heavy: QVQLVQSGAEVKKPGSSVKVSCKSSGYAFSSYWINWVRQAPGQGLEWMGQIFPGDGDTTYNGNFKGRVTITADKSTSTAYMELSSLRSEDTAVYYCARSGFDYGYFYAMDYWGQGTTVTVSSASTKGPSVFPLAPCSRSTSESTAALGCLVKDYFPEPVTVSWNSGALTSGVHTFPAVLQSSGLYSLSSVVTVPSSNFGTQTYTCNVDHKPSNTKVDKTVERKCCVECPPCPAPPVAGPSVFLFPPKPKDTLMISRTPEVTCVVVDVSHEDPEVQFNWYVDGVEVHNAKTKPREEQFNSTFRVVSVLTVVHQDWLNGKEYKCKVSNKGLPAPIEKTISKTKGQPREPQVYTLPPSREEMTKNQVSLTCLVKGFYPSDISVEWESNGQPENNYKTTPPMLDSDGSFFLYSKLTVDKSRWQQGNVFSCSVMHEALHNHYTQKSLSLSPGK
light: EIVMTQSPATLSVSPGERATLSCSVSSSISSSNLHWYQQKPGQSPRPWIFGTSNLASGIPARFSGSGSGTEFTLTISSLQSEDFAVYYCQQWSSYPLTFGGGTKVEIKRTVAAPSVFIFPPSDEQLKSGTASVVCLLNNFYPREAKVQWKVDNALQSGNSQESVTEQDSKDSTYSLSSTLTLSKADYEKHKVYACEVTHQGLSSPVTKSFNRGEC
notes: also called 35G12Z03-IgG2
In the case of B7, the response in assay [10] was half-maximal at 0.159 µg/mL (EC50).

B8: Chi39H11 (antibody, human IgG2, V domains shown)
VH: QVQLQQSGAELVRPGSSVKISCKASGYAFSSYWMNWVKQRPGQGLEWIGQIFPGDGETNYNGKFKGKATLTADKSSSTAYMQLSSLTSEDSAVYFCARGGYVNFLYAMDYWGQGTSVTVSS
VL: EIVLTQSPALMAASPGEKVTITCSVSSSISSSNLHWYQQKSETSPKPWIYGTSTLASGVPVRFSGSGSGTSYSLTISSMEAEDAATYYCQQWSSYPLTFGAGTKLELK
notes: also called 39H11 chimeric antibody
In the case of B8, the 50% effective concentration (EC50) in assay [12] is 0.0325 µg/mL; in [13], 0.228 µg/mL; in assay [11], 0.0953 µg/mL; in [1] it was 0.111 µg/mL.

B9: Chi35G12 (antibody, human IgG2, V domains shown)
VH: QVQLQQSGAELVRPGSSVKISCKSSGYAFSSYWMNWVKQRPGQGLEWIGQIFPGDGDTTYNGNFKGKTTLTADKSSNTAYMQLSSLTSEDSAVYFCARSGFDYGYFYAMDYWGQGTSVTVSS
VL: EIVLTQSPTLMAASPGEKVTITCSVSSSISSSNLHWYQQKSETSPKPWIFGTSNLASGVPVRFSGSGSGTSYSLTISNMEAEDAATYYCQQWSSYPLTFGAGTKLELK
notes: also called 35G12 chimeric antibody
Take B9: the values for the 50% effective concentration (EC50) in [10] and in [14] were 0.173 µg/mL and 0.403 µg/mL, respectively.
